{
  "source": "the DeepSol protein solubility set",
  "data": [
    {"test": "soluble on expression in E. coli; label from the status in PepcDB or PDB records", "values": [
      {"sequence": "MIELEGVPELIDPVMVAAFEGWNDAGDAASTAVAHLDREWKGEVFAALDAEDYYDFQVNRPTVWLDGGVRKITWPTTRLSVVRVGGEKPRDLVLVRGIEPSMRWRSFCNELLAFAHELGVELVVVLGALLGDTPHTRPVPVSGVTSDPDLARTMDLEETKYEGPTGIVGILQEACTHAGVPAVSLWAAVPHYVSQPPNPKATLALLNRLEDLIDVRIPLGELPEDARAWQVGVDQLAAEDSEVAEYVQSLEEARDTAELPEASGEAIAREFERYLRRRDGGGPAAGGHATADGSDGTSYLRDAPGGRTRPPKPPKPEAEDDGPADEGSDDSSED", "soluble on expression in E. coli": "not soluble"},
      {"sequence": "IQRSIERALDFRKEVQRLREESDGWFFDIWQPEAVDKAECWPVAPGEDWHGFKDADADHMYLDPVKVTILTPGMDEQGNMDEEGIPAALVAKFLDERGVVVEKTGPYNLLFLFSIGIDKTRAMGLLRGLTEFKRAYDLNLRVKNMLPDLYAEDPDFYRNMRIQDLAQGIH", "soluble on expression in E. coli": "not soluble"},
      {"sequence": "MHHHHHHSSGVDLGTENLYFQSNAMSSKIFCKSWGAEYIAADVVRFRLWATGQQKVMLRLAGKDQEMQANGDGWFTLDVAGVTPGTEYNFVLSDGMVVPDPASRAQKTDVNGPSYVVDPGSYTWRNTGWKGSRWEQAVVYEMHTGTFTPEGTFRAAIAKLPYLAELGVTVIEVMPVAQFGGERGWGYDGVLLYAPHSAYGTPDDFKAFIDAAHGYGLSVVLDIVLNHFGPEGNYLPLLAPAFFHKERMTPWGNGIAYDVDAVRRYIIEAPLYWLTEYHLDGLRFDAIDQIEDSSARHVLVEIAQRIREDITDRPIHLTTEDSRNIISLHPRDQDGNAPLFTAEWNDDFHNAVHVFATGETQAYYNDFADAPEKHLARALAEGFAYQGEISPQTGEPRGVKSTGQPPVAFVDFIQNHDQVGNRAQGDRLITLAGAERTKVLLATLLLSPHIPLLFMGEEYGESRPFLFFTDFHGDLARAVREGRAKEFADHAGENVPDPNAPETFQRSKLNWKQQHSEEGKAWLAFTRELLLLRQKHIVPLLSAARESSGTVLQTAPGFIAVSWRFPGGTLSLALNISATTVLLPDLPGKTLFAWPNESTGSLSQHSLIVRLAQGESAS", "soluble on expression in E. coli": "soluble"},
      {"sequence": "MSKKKVQNTNKKMKECWLTPIPQNVETVNMTVSFKIDEKDVGKPANEVIRINENSMVSFLSTNSFYNGLILSDKIVKVNGASGNISKYQTELMKGETCSVEVTRRKNIIPATRERLKKSGCVLRRDNTCFVIEVEKTSAMKSATVGVTVTYIQKRGIVTRIEPSSLASIFFGRGDLIMDINEESILNAEKNDDFIREKLSGILKGEKVTFLVERPVSVESANTLRHLIESVAPDPDVKMANDAICIGRNASNMHYNVLKKLQPKSILSRDVFKGKNPREKKPGKKLSKEKDNTIKISTATSTANISTDVAEDEIDNLKNVVTKSHAVRSGDEEEERGAFDDE", "soluble on expression in E. coli": "not soluble"},
      {"sequence": "MSDSKPRDVQVLPIATNTKVLRARSWSRLRFEIEYALERGTTSNSYVIEGDKTAIIDPPVESFMKIYLEALQQTVNLKKLDYVILGHFSPNRIPTFKALLELAPQITFVCSLPAAGDLRAAFPDDNLNILPMRGKETLDLGKGHVLKFLPIPSPRWPAGLCTYDVQTQILYTDKIFGAHICGDDVFDDNWESFKEDQRYYFNCLMAPHAIHVEAALEKISDLQVRLYAVGHGPLVRTSLIALTQAYADWSKAQKDREISVALLYASAYGNTATIARAIALGLTKGGVAVKSINCEFATPEEIQTNLEQVDGFLIGSPTIGGHAPTPINTALGIVLKVGDNNKLAGVFGSYGWSGEALDMIEGKLRDAGYRFGLDTLKVKFKPDDVTLKFCEEVGTDFAQTLKKAKKVRVPQQAATPVEQAVGRIVGSVCVITAKQGDVSTGMLGSWVSQATFNPPGLTVAIAKERAIESLMYPGGKFALNILSEGNHLEYMKHFRKNFAPGEDRFANFTTTEADNGCTVLADALAYVECSVDQRLECGDHWVVYATVDNGKLLKPDDVTAINHRKTGNHY", "soluble on expression in E. coli": "soluble"},
      {"sequence": "MARIIVVTSGKGGVGKTTSSAAIATGLAQKGKKTVVIDFDIGLRNLDLIMGCERRVVYDFVNVIQGDATLNQALIKDKRTDNLYILPASQTRDKDALTKEGVEKVLNDLGEMNFEFVVCDSPAGIESGALMALYFADEAVITTNPEVSSVRDSDRILGILSSKSRRAENSQEPIKEHLLLTRYNPGRVNRGDMLSMEDVLDILRIPLVGVIPEDQSVLRASNQGEPVILDKESDAGKAYEDTVDRLLGEERPFRFVEEEKKGFLKRLFGG", "soluble on expression in E. coli": "not soluble"},
      {"sequence": "MGSDKIHHHHHHMSAISYLHLLMLRQNNSMTRHNQTLFNLPLFNQHQFNPPQLNQVAIDQLQQGQAKRLSLLWLWLQQDETRLAALMVCQKVMQQQGITDWLISAGFIRNLIWDNLHSMTSQPLNDIDVIYWRDNNPSSAEDQAIEALLVKQIALPWSVKNQARMHLRNGDMPYISCADAMSFWPEKQTAIGVKLASIDDLTSAEFQLQVTSVFGLSCLFDLSLSPNPKRDKAIFNHRVSQKGWLIHYSKLLVTE", "soluble on expression in E. coli": "not soluble"},
      {"sequence": "MEAGLDQSEIDERCECLKEVATSPAGRVLATDKQLDNLEQFISLVPGYIEKVRSHRVAVKAEEKRKAEEKRRQEEKEEEARKAREKQIEEERKAKEEQRANEERAKEERDRRALEVIVPPRQNSANSNINASVAFITNRLEMGSFSENNETVDRTIDTTATTVLSASSNAAQVDFVSFIKNSGEYLMVRKKKFPVDELVNNEKLGYPLGVTYDEKSKYWIICDRNLNKVLLMNVAESDVRVFEGPHLRNPTAVAVFEKGKSVVILCAPGNNQHVIYIYDFVDEIMHQFASHSDPLYNMKSQLRGLAISLGGNVLSLECSHAAAPKRLRIFKRDVGGKGFDIMGAKTPSFIASHNSKVAISDLGNNTVLIGNLIDTDWNKMSFSVLRIIETTQDLTLDQLANNNGFKFVSGMQFDTYGHLLIGDAKGHTIKLYDTDYKFLHRISSDFPLPYMSSFHISSSGEGIILDVHAQQKLHWVKMESIENITPWKAPPYQPKQSRENYQNRRF", "soluble on expression in E. coli": "not soluble"},
      {"sequence": "MGSDKIHHHHHHMTTKDISRPVCILGLGLIGGSLLRDLHAANHSVFGYNRSRSGAKSAVDEGFDVSADLEATLQRAAAEDALIVLAVPMTAIDSLLDAVHTHAPNNGFTDVVSVKTAVYDAVKARNMQHRYVGSHPMAGTANSGWSASMDGLFKRAVWVVTFDQLFDGTDINSTWISIWKDVVQMALAVGAEVVPSRVGPHDAAAARVSHLTHILAETLAIVGDNGGALSLSLAAGSYRDSTRVAGTDPGLVRAMCESNAGPLVKALDEALAILHEAREGLTAEQPNIEQLADNGYRSRIRYEARSGQRRAKESVSPTITSSRPVLRLHPGTPNWEKQLIHAETLGARIEVF", "soluble on expression in E. coli": "not soluble"},
      {"sequence": "MSQSNTLTVQILDKEYCINCPDDERANLESAARYLDGKMREIRSSGKVIGADRVAVMAALNITHDLLHRKERLDQESSSTRERVRELLDRVDRALANPADAGEA", "soluble on expression in E. coli": "soluble"},
      {"sequence": "MPYPFKLPDLGYPYEALEPHIDAKTMEIHHQKHHGAYVTNLNAALEKYPYLHGVEVEVLLRHLAALPQDIQTAVRNNGGGHLNHSLFWRLLTPGGAKEPVGELKKAIDEQFGGFQALKEKLTQAAMGRFGSGWAWLVKDPFGKLHVLSTPNQDNPVMEGFTPIVGIDVWEHAYYLKYQNRRADYLQAIWNVLNWDVAEEFFKKA", "soluble on expression in E. coli": "soluble"},
      {"sequence": "MGSDKIHHHHHHMWFSLTYAIIMHSLTTTRKMLQRLDVYLTSFEWGNFSKSKLSILQAFLKIATKDGYDAVSMRSLAKAVDLKPPTMYSHFPAGKDQIVSSAFRWHYYSFAMAVKEGLSQSETLEEYWSALIRVHIIQQIKHPENDLFDMLMATDRLGSILPTDLRSEMIEWLSFCDFMYESIATDLGIDDAKQKSKIIRVTLDGANSWWKWDDSQENLEECIRYAERIAAGILKI", "soluble on expression in E. coli": "not soluble"},
      {"sequence": "MGSDKIHHHHHHMNAVISILVENTTPSPSLIGEYGFSALVEVDERKILFDTGSSDALFKNAENLGVKLEEVEALVISHGHFDHTSAVIPFLQRFGPKKLYLHPGIFSQRYLQGKKGLGPNIGCPFEPEDLVKNGAEIIFIDSFSEIMPGVFISGEIPRRNSFENTGGNFKVATHHGLLEDRLLDDMALLVDHPEGLIIISGCAHSGMINTIEYIREKTGRSKILAFIGGTHLITASEDRLAQTIAVLKMMDIEKIAVGHCTGFYAAARLLNELGPRVIKADTGMSFSF", "soluble on expression in E. coli": "not soluble"},
      {"sequence": "FSPLSSQSSACCFAYIARPLPRAHIKEYFYTSGKCSNPAVVFVTRKNRQVCANPEKKWVREYINSLEMS", "soluble on expression in E. coli": "soluble"},
      {"sequence": "MSPAPELQIPTVTRQSDGTKIHEISGHKFKAVGLAQPTFCSFCSKFIYGVGKQGYKCLGCETVVHKRCHALITARCTFGPSSRAPVPAETTNLKTRRSRSASEEPPSNTHHFNKHFFTRPTFCDHCGSMLYGLTKQGVQCTDCHANVHFRCQEKVLRNCGIQCQ", "soluble on expression in E. coli": "not soluble"},
      {"sequence": "MNIILKISGKFFDEDNVDNLIVLRQSIKELADNGFRVGIVTGGGSTARRYIKLAREIGIGEAYLDLLGIWASRLNAYLVMFSLQDLAYMHVPQSLEEFIQDWSHGKVVVTGGFQPGQSTAAVAALVAEASSSKTLVVATNVDGVYEKDPRIYADVKLIPHLTTQDLRKILEGSQSVQAGTYELLDPLAIKIVERSKIRVIVMNYRKLNRIIDILKGEEVSSIIEPV", "soluble on expression in E. coli": "soluble"},
      {"sequence": "MSLRNDPTGVTHAIRLDNDIFKLNVYIKNIDTSKSNLRYTEGYLQSLTNILTRAKEIAIQGASGTYESDDKKMISKEVNALLEDVVAIANAKGPDGYSIFSGTKIDSEAFKVTRENKISKTSKDGAGPQIIKVEYNGNQAEKKTEVYNDIHMSNNYPGNVIFFLQNQNIISSINTNGFAVKENTKIYIDNIEIGLTAGDTALDIVAKINESSAPVEASIDPVLNSLSIKTTTPHQIWITEEKESNVLQTLGILTKNNDTKLPPYNLSSSTEVRSRSIFDALIELRDTLYNNKEELVGSRSLAEIDESLKRLLISVADLGAKENRLDRSYERISKEAADMKEDMIQYTDLDVTKAITNLNMASLAYQVSIGISAKIMQTTLLDFIKEGHHHHHH", "soluble on expression in E. coli": "soluble"},
      {"sequence": "MADQYHEPVSELTGKDRDFVRALNSLKEEIEAVAWYHQRVVTTKDETVRKILEHNRDEEMEHAAMLLEWLRRNMPGWDEALRTYLFTDKPITEIEEETSGGSENTGGDLGIRKL", "soluble on expression in E. coli": "soluble"},
      {"sequence": "MGSDKIHHHHHHMLHYTKEDLLELGAEITTREIYQQPDVWREAFEFYQAKREEIAAFLQEIADKHDYIKVILTGAGTSAYVGDTLLPYFKEVYDERKWNFNAIATTDIVANPATYLKKDVATVLVSFARSGNSPESLATVDLAKSLVDELYQVTITCAADGKLALQAHGDDRNLLLLQPAVSNDAGFAMTSSFTSMMLTTLLVFDPTEFAVKSERFEVVSSLARKVLDKAEDVKELVDLDFNRVIYLGAGPFFGLAHEAQLKILELTAGQVATMYESPVGFRHGPKSLINDNTVVLVFGTTTDYTRKYDLDLVREVAGDQIARRVVLLSDQAFGLENVKEVALGCGGVLNDIYRVFPYIVYAQLFALLTSLKVENKPDTPSPTGTVNRVVQGVIIHEYQK", "soluble on expression in E. coli": "not soluble"},
      {"sequence": "SQIPASEQETLVRPKPLLLKLLKSVGAQKDTYTMKEVLFYLGQYIMTKRLYDEKQQHIVYCSNDLLGDLFGVPSFSVKEHRKIYTMIYRNLVVVNQQESSDSGTSVSENHHHHHH", "soluble on expression in E. coli": "soluble"},
      {"sequence": "MSLGESRKHIDYKKGTINLNGVEYPLNDTNFPTINPENPLELLEEEAELLDKLQASFLGSEKLQKHMQLLFAKGGMYLKYNSNLLFHACIPMEPNGEFSKLYVEDGYYKGKALMDKIDNIVRQAYYDRKNVEVNKKHRDFIWYLWAGRLSPLFGKDVMKTFERYFIDDKSTHKEIKNPYHKLINDEKICDKIFEEFGLNPRTSHIINGHIPVKVKEGESPIKANGKLLIIDGGFSRAYQSTTGIAGYTLTYNSYGMKLASHLKFISKEAAIKDGTDMISSHIIVETKSKRMKVKDTDIGKNIQNQINDLKKLLKAYRIGLIKSNEGHHHHHH", "soluble on expression in E. coli": "not soluble"},
      {"sequence": "KIQEWLGESDYSDFLSVVEAVHDSGPSFVLQAMKSLDKYDAMMCISVDSMVNRIQELIDDTMVMSTNNPWGVIPSEGGAGLIFCRRNTVETLKLKPLAQLGYIDTELNTSDRRGMYRLVQRASKKLTAFGEVYSDMTNLRAHSEDYGFALGAKAERFINPEQPLLINE", "soluble on expression in E. coli": "not soluble"}
    ]}
  ]
}
